Patent US20210171616A1 (Eli Lilly, published 2021)

T1: PACAP38 (human, K at residue 38 modified by C-terminal amidation)
T1 peptide: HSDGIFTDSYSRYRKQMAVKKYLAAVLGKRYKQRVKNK

T2: PACAP27 (human, L at residue 27 modified by C-terminal amidation)
T2 peptide: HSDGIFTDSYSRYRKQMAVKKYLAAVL

T3: VIP (UniProt P01282 125-152)
T3 peptide (looked up): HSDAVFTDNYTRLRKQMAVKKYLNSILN

T4: N-terminal biotinylated PACAP38 (Anaspec, #23590) (human, N-terminal biotin; K at residue 38 modified by C-terminal amidation (as stated for SEQ ID NO 13))
T4 construct: Bought peptide; also called Antigen (PACAP38)
T4 peptide: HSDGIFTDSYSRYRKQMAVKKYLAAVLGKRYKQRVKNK

T5: N-terminal biotinylated PACAP27 (custom synthesis, CPC Scientific) (human, N-terminal biotin; L at residue 27 modified by C-terminal amidation (as stated for SEQ ID NO 14))
T5 construct: Custom peptide; also called Antigen (PACAP27)
T5 peptide: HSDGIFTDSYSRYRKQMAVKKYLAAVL

B1: Exemplified Antibody B (antibody, human IgG4 S228P, kappa, F234A L235A, V domains shown)
VH: EVQLLESGGGLVQPGGSLRLSCAASGFTFSSYYMSWVRQAPGKGLEWVSAISLSGGSTYYAASHKGRFTISRDNSKNTLYLQMNSLRAEDTAVYYCVREVGASTHNYYGMDVWGQGTMVTVSS
VL: DIQMTQSPSSLSASVGDRVTITCRASQSIWRWLAWYQQKPGKAPKLLIHDASQLFEGVPSRFSGSGSGTDFTFTISSLQPEDIATYYCQQFDLLPLTFGGGTKVEIKR
notes: IgG4, kappa light chain; also called Exemplified Ab B; Ab B
B2: Exemplified Antibody A (antibody, human IgG4 S228P, kappa, F234A L235A, V domains shown)
VH: EVQLLESGGGLVQPGGSLRLSCAASGFTFSSYYMSWVRQAPGKGLEWVSAISLSGGSTYYADSHKGRFTISRDNSKNTLYLQMNSLRAEDTAVYYCVREVGASNHNYYGMDVWGQGTMVTVSS
VL: DIQMTQSPSSLSASVGDRVTITCRASQSISRWLAWYQQKPGKAPKLLIHDASQLLEGVPSRFSGSGSGTDFTFTISSLQPEDIATYYCQQFDLLPLTFGGGTKVEIKR
notes: IgG4, kappa light chain; also called Exemplified Ab A; Ab A
B3: Exemplified Antibody C (antibody, human IgG4 S228P, kappa, F234A L235A, V domains shown)
VH: EVQLLESGGGLVQPGGSLRLSCAASGFTFSSYYMSWVRQAPGKGLEWVSAISLSGGSTYYAESHKGRFTISRDNSKNTLYLQMNSLRAEDTAVYYCVREVGASTHNYYGMDVWGQGTMVTVSS
VL: DIQMTQSPSSLSASVGDRVTITCRASQSIWRWLAWYQQKPGKAPKLLIHDASQLFEGVPSRFSGSGSGTDFTFTISSLQPEDIATYYCQQFDLLPLTFGGGTKVEIKR
notes: IgG4, kappa light chain; also called Exemplified Ab C; Ab C
B4: Exemplified Antibody D (antibody, human IgG4 S228P, kappa, F234A L235A, V domains shown)
VH: EVQLLESGGGLVQPGGSLRLSCAASGFTFSSYYMSWVRQAPGKGLEWVSAISLSGGSTYYAQSHKGRFTISRDNSKNTLYLQMNSLRAEDTAVYYCVREVGASTHNYYGMDVWGQGTMVTVSS
VL: DIQMTQSPSSLSASVGDRVTITCRASQSIWRWLAWYQQKPGKAPKLLIHDASQLFEGVPSRFSGSGSGTDFTFTISSLQPEDIATYYCQQFDLLPLTFGGGTKVEIKR
notes: IgG4, kappa light chain; also called Exemplified Ab D; Ab D

Columns and labels:
PACAP38 [1] = target: T1, PACAP38; test: cell-based or functional assay
PACAP27 [2] = target: T2, PACAP27; test: cell-based or functional assay
VIP = target: T3, VIP; test: cell-based or functional assay
PACAP38 [3] = target: T1, PACAP38; test: cell-based or functional assay
PACAP27 [4] = target: T2, PACAP27; test: cell-based or functional assay
PACAP27 [5] = target: T2, PACAP27; test: cell-based or functional assay
PACAP38 [6] = target: T1, PACAP38; test: cell-based or functional assay
PACAP38 [7] = target: T1, PACAP38; test: cell-based or functional assay
[8] = target: T4, N-terminal biotinylated PACAP38 …; test: kinetic exclusion 96-well MSD plate assay, solution equilibrium at 37 C, 30 pM biotinylated antigen
Procedure: (§1) Binding affinity (KD) for each antibody-antigen complex is determined using a kinetic exclusion 96-well plate-based assay (adapted from Estep et al., mAbs, 2013, 5:270-278). Briefly, a 3-fold dilution series for each Exemplified Ab (set forth in Table 1) is prepared from a starting concentration of 7290 pM to 41 fM; each series including an antibody-blank control. Samples are prepared in 3% (w/v) Blocker A solution (MSD, #R93AA-1) and a fixed final antigen concentration of 30 pM of N-terminal biotinylated PACAP27 (custom synthesis, CPC Scientific) or N-terminal biotinylated PACAP38 (Anaspec, #23590) is added to each sample. A volume of 100 μl of each antigen-antibody sample is added to individual wells of a 96-well microtiter plate (Greiner, EK-20101) in duplicate. The plate is sealed with optical adhesive film (Thermo Fisher Scientific, #4311971) and incubated at 37° C. for 3 to 4 days to allow for sample equilibrium. On the day before analysis, each row of a 96-well MSD Standard plate (MSD, #L15XA) is coated with 30 μl of the corresponding antibody (as used in the titration series) at a concentration of 3 μg/ml in phosphate buffered saline (PBS). On the day of the experiment, the MSD Standard plate is washed once with 150 μl PBS and blocked with 150 μl of 3% Blocker A solution for 45 min at 30° C. with shaking at 300 rpm on a MaxQ 4450 benchtop shaker (Thermo Fisher Scientific). Following three washes with PBS, 50 μl of each antigen-antibody sample (prepared and incubated as described above) is added to the MSD Standard plate and incubated for 150 seconds at 30° C. with shaking at 300 rpm. Following a single wash with PBS, 50 μl of 1 μg/ml SULFO-TAG labeled Streptavidin (MSD, #R32AD-5) prepared in 1% (w/v) Blocker A solution is added and the MSD Standard plate and the plate is incubated at 30° C. for 3 minutes with shaking at 300 rpm. The plate is washed three more times with PBS followed by the addition of 150 μl/well of 1× Read buffer (MSD, #R92TC-2). The MSD Standard plate is read using a MESO Quickplex SQ 120/1300 instrument (Meso Scale Discovery). Data analysis is done using SigmaPlot (Version 12.5, Systat Software) and binding affinity (KD) is determined using SigmaPlot's integrated Four Parameter Logistic Curve Model.

[9] = target: T5, N-terminal biotinylated PACAP27 (custom …); test: as above
Procedure: as §1

Inhibition (IC50) of PACAP38 (100 pM) induced cAMP in hPAC1 CHO-K1 cells (PACAP38 [1]) [pM] | Inhibition (IC50) of PACAP38 (800 pM) induced cAMP in hVPAC2 CHO-K1 cells (PACAP38 [1]) [pM] | Inhibition (IC50) of PACAP27 (100 pM) induced cAMP in hPAC1 CHO-K1 cells (PACAP27 [2]) [pM] | Inhibition (IC50) of PACAP27 (800 pM) induced cAMP in hVPAC2 CHO-K1 cells (PACAP27 [2]) [pM] | Inhibition (IC50) of VIP (800 pM) induced cAMP in hVPAC2 CHO-K1 cells (VIP) [pM] | Percentage tryptase release in human mast cells upon addition of 1 uM PACAP38; antibody 153 uM, single point (PACAP38 [3]) [%] | Percentage tryptase release in human mast cells upon addition of 1 uM PACAP27; antibody 153 uM, single point (PACAP27 [4]) [%] | Percentage tryptase release upon addition of PACAP27; antibody dose 0 uM (PACAP27 [5]) [%] | Percentage tryptase release upon addition of PACAP27; antibody dose 0.2 uM (PACAP27 [5]) [%] | Percentage tryptase release upon addition of PACAP27; antibody dose 0.6 uM (PACAP27 [5]) [%] | Percentage tryptase release upon addition of PACAP27; antibody dose 1.8 uM (PACAP27 [5]) [%] | Percentage tryptase release upon addition of PACAP27; antibody dose 5.6 uM (PACAP27 [5]) [%] | Percentage tryptase release upon addition of PACAP27; antibody dose 17 uM (PACAP27 [5]) [%] | Percentage tryptase release upon addition of PACAP27; antibody dose 51 uM (PACAP27 [5]) [%] | Percentage tryptase release upon addition of PACAP27; antibody dose 153 uM (PACAP27 [5]) [%] | Percentage tryptase release upon addition of PACAP38; antibody dose 0 uM (PACAP38 [6]) [%] | Percentage tryptase release upon addition of PACAP38; antibody dose 0.2 uM (PACAP38 [6]) [%] | Percentage tryptase release upon addition of PACAP38; antibody dose 0.6 uM (PACAP38 [6]) [%] | Percentage tryptase release upon addition of PACAP38; antibody dose 1.8 uM (PACAP38 [6]) [%] | Kd [9] [nM] | further results | Binder
265 | 294 | 270 | 605 | > 100000 | 4.9 | 21 | 85.2 | 78.1 | 54 | 11.7 | 8.1 | 11.6 | 19.4 | 10.3 | 77.2 | 73.7 | 52.4 | 25.2 | 0.0116 | Percentage tryptase release upon addition of PACAP38; antibody dose 5.6 uM (PACAP38 [6]): 22%; Percentage tryptase release upon addition of PACAP38; antibody dose 17 uM (PACAP38 [6]): 14.9%; Percentage tryptase release upon addition of PACAP38; antibody dose 51 uM (PACAP38 [6]): 14.6%; Percentage tryptase release upon addition of PACAP38; antibody dose 153 uM (PACAP38 [6]): 2%; Plasma cAMP levels in CD-1 mice after iv PACAP38 (13 nmols/kg); antibody 10 mg/kg sc (PACAP38 [7]): 715 nM; Kd [8]: 0.0128 nM | B1
554 | 714 | 2250 | 781 | > 100000 | – | – | – | – | – | – | – | – | – | – | – | – | – | – | 0.037 | – | B2
303 | 325 | 311 | 595 | > 100000 | 5.5 | 14.2 | 85.8 | 85.2 | 55.4 | 10.4 | 11.5 | 8 | 17.8 | 9.7 | 80.3 | 77.6 | 66.6 | 26.5 | 0.0145 | Percentage tryptase release upon addition of PACAP38; antibody dose 5.6 uM (PACAP38 [6]): 21.9%; Percentage tryptase release upon addition of PACAP38; antibody dose 17 uM (PACAP38 [6]): 15.5%; Percentage tryptase release upon addition of PACAP38; antibody dose 51 uM (PACAP38 [6]): 12.1%; Percentage tryptase release upon addition of PACAP38; antibody dose 153 uM (PACAP38 [6]): 2.8%; Plasma cAMP levels in CD-1 mice after iv PACAP38 (13 nmols/kg); antibody 10 mg/kg sc (PACAP38 [7]): 666 nM; Kd [8]: 0.0146 nM | B3
205 | 243 | 212 | 515 | > 100000 | 4.2 | 15.1 | 92.7 | 86.5 | 73 | 20.3 | 16.4 | 19.8 | 26 | 9.4 | 76.5 | 74 | 64.5 | 31.3 | 0.0105 | Percentage tryptase release upon addition of PACAP38; antibody dose 5.6 uM (PACAP38 [6]): 25.9%; Percentage tryptase release upon addition of PACAP38; antibody dose 17 uM (PACAP38 [6]): 19.6%; Percentage tryptase release upon addition of PACAP38; antibody dose 51 uM (PACAP38 [6]): 14.7%; Percentage tryptase release upon addition of PACAP38; antibody dose 153 uM (PACAP38 [6]): 1.7%; Plasma cAMP levels in CD-1 mice after iv PACAP38 (13 nmols/kg); antibody 10 mg/kg sc (PACAP38 [7]): 560 nM; Kd [8]: 0.009 nM | B4
